US20250313635A1, “ANTI-INTEGRIN ANTIBODIES AND USES THEREOF” (Merck Sharp & Dohme LLC, priority 2022, published 2025)
One block for each substance: values may come before it.

Tests used:
[1] = target: human Fibronectin (R&D Systems 1918-FN) (human) (UniProt P02751); experiment: AlphaLISA integrin-ligand binding, ligand at 1.0 nM
[2] = target: human Vitronectin-GST tagged (EMD Millipore 08-126) (human) (UniProt P04004); experiment: AlphaLISA integrin-ligand binding, ligand at 10.0 nM
[3] = target: human Vitronectin-GST tagged (EMD Millipore 08-126) (human) (UniProt P04004); experiment: AlphaLISA integrin-ligand binding, ligand at 1.0 nM
[4] = target: human LAP (R&D system 246-LP) (human) (UniProt P01137); experiment: AlphaLISA integrin-ligand binding, ligand at 0.5 nM
[5] = target: human LAP (R&D system 246-LP) (human) (UniProt P01137); experiment: AlphaLISA integrin-ligand binding, ligand at 3.0 nM
[6] = target: mouse fibronectin (Abcam ab92784) (mouse) (UniProt P11276); experiment: AlphaLISA integrin-ligand binding, ligand at 2.5 nM
[7] = target: mouse fibronectin (Abcam ab92784) (mouse) (UniProt P11276); experiment: AlphaLISA integrin-ligand binding, ligand at 1.0 nM
[8] = target: mouse Vitronectin (Abcam ab92727) (mouse) (UniProt P29788); experiment: AlphaLISA integrin-ligand binding, ligand at 5.0 nM
[9] = target: mouse Vitronectin (Abcam ab92727) (mouse) (UniProt P29788); experiment: AlphaLISA integrin-ligand binding, ligand at 2.5 nM
[10] = target: mouse LAP-6His (Chem partner) (mouse) (UniProt P04202); experiment: as above
mouse LAP-6His (Chem partner) (mouse), sequence (P04202 30-278 limits assumed): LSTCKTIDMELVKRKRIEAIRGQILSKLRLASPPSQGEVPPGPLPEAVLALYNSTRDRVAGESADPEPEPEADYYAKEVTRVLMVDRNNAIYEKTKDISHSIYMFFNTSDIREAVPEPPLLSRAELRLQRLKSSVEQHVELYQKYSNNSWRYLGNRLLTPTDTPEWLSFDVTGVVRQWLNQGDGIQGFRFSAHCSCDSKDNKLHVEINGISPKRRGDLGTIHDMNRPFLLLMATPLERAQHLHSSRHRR

mouse Vitronectin (Abcam ab92727) (mouse), sequence (P29788 20-478 limits assumed): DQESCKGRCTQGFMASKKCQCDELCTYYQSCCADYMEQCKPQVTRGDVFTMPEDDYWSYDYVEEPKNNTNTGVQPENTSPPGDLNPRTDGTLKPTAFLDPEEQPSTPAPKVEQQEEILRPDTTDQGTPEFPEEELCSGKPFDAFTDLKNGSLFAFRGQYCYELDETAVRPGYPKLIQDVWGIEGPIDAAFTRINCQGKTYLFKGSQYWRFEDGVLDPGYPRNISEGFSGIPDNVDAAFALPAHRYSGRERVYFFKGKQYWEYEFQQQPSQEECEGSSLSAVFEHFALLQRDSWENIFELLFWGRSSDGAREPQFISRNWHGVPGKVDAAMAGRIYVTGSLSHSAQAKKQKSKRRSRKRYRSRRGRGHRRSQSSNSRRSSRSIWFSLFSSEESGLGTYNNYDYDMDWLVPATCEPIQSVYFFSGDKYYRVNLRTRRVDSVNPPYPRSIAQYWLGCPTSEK
human Fibronectin (R&D Systems 1918-FN) (human), sequence (P02751 other isoform, or with tags, fused parts or gaps limits assumed): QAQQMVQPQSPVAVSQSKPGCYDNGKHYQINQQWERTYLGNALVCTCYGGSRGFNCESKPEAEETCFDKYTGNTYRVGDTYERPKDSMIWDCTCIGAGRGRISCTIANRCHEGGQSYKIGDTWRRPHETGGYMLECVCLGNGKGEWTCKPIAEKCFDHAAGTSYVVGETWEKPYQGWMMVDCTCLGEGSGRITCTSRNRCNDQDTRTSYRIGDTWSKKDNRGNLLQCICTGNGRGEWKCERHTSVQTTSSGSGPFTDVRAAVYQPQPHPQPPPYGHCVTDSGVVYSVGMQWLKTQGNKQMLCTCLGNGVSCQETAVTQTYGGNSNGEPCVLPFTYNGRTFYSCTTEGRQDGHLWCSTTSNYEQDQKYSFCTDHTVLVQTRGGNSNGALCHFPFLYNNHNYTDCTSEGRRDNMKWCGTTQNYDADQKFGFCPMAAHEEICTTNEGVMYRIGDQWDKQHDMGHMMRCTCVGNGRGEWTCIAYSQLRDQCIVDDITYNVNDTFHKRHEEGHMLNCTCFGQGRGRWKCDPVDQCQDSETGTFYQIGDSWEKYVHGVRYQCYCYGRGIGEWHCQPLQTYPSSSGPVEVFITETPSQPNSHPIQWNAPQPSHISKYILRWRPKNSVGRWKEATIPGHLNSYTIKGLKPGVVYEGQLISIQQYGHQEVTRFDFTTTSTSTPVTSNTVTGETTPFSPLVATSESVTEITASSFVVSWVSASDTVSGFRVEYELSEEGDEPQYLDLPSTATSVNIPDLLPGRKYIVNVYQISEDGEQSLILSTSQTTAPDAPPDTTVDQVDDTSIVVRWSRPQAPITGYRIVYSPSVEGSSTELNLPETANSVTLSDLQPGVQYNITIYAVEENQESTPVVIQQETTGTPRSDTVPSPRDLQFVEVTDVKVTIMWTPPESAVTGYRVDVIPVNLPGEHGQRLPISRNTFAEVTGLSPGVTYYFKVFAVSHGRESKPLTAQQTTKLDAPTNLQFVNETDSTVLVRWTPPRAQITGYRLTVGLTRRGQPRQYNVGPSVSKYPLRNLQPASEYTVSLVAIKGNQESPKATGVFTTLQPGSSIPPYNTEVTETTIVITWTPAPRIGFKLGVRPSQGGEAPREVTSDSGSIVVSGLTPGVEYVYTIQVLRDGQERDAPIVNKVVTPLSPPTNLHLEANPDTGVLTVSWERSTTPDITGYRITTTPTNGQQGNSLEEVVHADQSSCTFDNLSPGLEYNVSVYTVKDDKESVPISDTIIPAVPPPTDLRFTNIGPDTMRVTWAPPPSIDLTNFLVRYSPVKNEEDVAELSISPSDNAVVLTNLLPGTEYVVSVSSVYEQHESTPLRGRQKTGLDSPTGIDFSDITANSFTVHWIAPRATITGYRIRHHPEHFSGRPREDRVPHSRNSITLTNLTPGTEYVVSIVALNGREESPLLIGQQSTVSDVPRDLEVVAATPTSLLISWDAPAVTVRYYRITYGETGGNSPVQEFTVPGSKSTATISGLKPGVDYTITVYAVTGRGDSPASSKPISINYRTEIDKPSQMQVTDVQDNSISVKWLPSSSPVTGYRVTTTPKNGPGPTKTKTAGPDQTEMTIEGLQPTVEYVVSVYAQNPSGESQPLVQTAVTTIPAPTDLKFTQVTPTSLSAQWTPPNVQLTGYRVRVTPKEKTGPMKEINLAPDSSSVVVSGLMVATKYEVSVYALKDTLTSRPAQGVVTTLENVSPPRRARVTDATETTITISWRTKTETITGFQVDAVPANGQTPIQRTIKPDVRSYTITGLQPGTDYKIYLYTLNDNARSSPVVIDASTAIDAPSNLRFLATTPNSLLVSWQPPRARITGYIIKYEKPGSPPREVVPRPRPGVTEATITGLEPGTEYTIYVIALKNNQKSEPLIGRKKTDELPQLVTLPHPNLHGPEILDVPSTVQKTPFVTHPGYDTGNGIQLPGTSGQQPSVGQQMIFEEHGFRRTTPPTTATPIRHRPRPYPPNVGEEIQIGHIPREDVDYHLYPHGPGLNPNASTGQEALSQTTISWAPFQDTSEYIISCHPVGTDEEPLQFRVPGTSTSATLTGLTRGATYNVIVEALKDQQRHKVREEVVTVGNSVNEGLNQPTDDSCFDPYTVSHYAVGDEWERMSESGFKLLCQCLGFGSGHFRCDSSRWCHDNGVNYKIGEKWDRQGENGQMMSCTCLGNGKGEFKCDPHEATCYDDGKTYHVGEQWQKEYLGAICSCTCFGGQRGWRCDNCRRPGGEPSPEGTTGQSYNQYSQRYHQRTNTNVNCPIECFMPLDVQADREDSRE

Substance: recombinant human αvβ3 integrin extracellular domains (from UniProt P06756 1-992; P05106 1-718) (receptor)
Integrin EC80 (batch dependent) [2]: 3 nM

Substance: recombinant human αvβ5 integrin extracellular domains (from UniProt P06756 1-992; P18084 1-719) (receptor)
Integrin EC80 (batch dependent) [3]: 2.5 nM

Substance: recombinant human αvβ6 integrin extracellular domains (from UniProt P06756 1-992; P18564 1-709) (receptor)
Integrin EC80 (batch dependent) [4]: 0.1 nM

Substance: recombinant mouse αvβ3 integrin extracellular domains (from UniProt P43406 1-988; O54890 1-717) (receptor)
Integrin EC80 (batch dependent) [8]: 3 nM

Substance: recombinant mouse αvβ5 integrin extracellular domains (from UniProt P43406 1-988; O70309 1-719) (receptor)
Integrin EC80 (batch dependent) [9]: 0.6 nM

Substance: recombinant mouse αvβ6 integrin extracellular domains (from UniProt P43406 1-988; Q9Z0T9 1-706) (receptor)
Integrin EC80 (batch dependent) [10]: 1.4 nM

Substance: recombinant mouse αvβ8 integrin extracellular domains (from UniProt P43406 1-988; Q0VBD0 1-679) (receptor)
Integrin EC80 (batch dependent) [10]: 1 nM

The next lines start with the values.

Integrin EC80 (batch dependent) [1]: 1.4 nM
Substance: recombinant human αvβ1 integrin extracellular domains (from UniProt P06756 1-992; P05556 1-728) (receptor)

Integrin EC80 (batch dependent) [5]: 1 nM
Substance: recombinant human αvβ8 integrin extracellular domains (from UniProt P06756 1-992; P26012 1-684) (receptor)

Integrin EC80 (batch dependent) [6]: 1 nM
Substance: recombinant mouse α5β1 integrin extracellular domains (from UniProt P11688 1-999; P09055 1-728) (receptor)

Integrin EC80 (batch dependent) [7]: 4.3 nM
Substance: recombinant mouse αvβ1 integrin extracellular domains (from UniProt P43406 1-988; P09055 1-728) (receptor)
